Where two headings read alike, the source gives them in different places.
Columns and labels:
[1] = target: T1, LILRA3 expressed on 293T cells (UniProt Q8N6C8 24-439, limits assumed); experiment: flow cytometry on 293T cells transiently expressing LILRA3, APC anti-human Fc; gMFI as fold to IgG staining
T1 construct: whole, on cells; GFP-tagged, transient
Description: (§1) The antibody binding signals were measured by flow cytometry with geometric MFI (gMFI). […] IgG1 is an isotype control (IgG).
(§2) The APC signals in GFP+ cells were quantified by flow cytometry.

[2] = target: T2, human LILRB1 expressed on cells (human, UniProt Q8NHL6 24-650); experiment: flow cytometry, CHO-LILRB1 cells
T2 construct: In 293T cells it was expressed from pCMV3-LILRB1-GFP; also called CHO-LILRB1; Jurkat-LILRB1
T2 sequence (Q8NHL6 other isoform, or with tags, fused parts or gaps limits assumed): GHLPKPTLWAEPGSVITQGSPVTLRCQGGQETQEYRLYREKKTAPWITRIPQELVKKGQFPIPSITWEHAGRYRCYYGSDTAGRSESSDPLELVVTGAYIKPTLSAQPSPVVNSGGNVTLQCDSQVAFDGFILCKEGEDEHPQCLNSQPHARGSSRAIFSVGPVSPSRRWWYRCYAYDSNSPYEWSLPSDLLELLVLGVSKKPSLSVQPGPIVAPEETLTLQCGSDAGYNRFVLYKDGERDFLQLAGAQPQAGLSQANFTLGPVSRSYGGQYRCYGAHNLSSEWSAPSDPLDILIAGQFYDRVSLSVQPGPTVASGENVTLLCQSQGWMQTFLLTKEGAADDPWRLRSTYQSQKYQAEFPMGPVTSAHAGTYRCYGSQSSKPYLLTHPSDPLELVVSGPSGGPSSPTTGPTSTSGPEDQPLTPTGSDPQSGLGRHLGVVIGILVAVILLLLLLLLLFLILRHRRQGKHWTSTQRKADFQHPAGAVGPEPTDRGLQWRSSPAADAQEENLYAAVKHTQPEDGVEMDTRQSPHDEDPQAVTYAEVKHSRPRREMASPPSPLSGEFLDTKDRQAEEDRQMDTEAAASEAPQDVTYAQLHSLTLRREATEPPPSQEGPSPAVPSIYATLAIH
Description: IgG1 is an isotype control (IgG).
Specifically, 50 μL CHO-LILRB1 or CHO-LILRB2 cells (4×10⁴ cells) were added to each well of a 96-well U-bottom plate. […] After an incubation for 30 minutes, the plate was centrifuged and cells were washed with PBS 3 times. […] After mixing for 30 minutes at room temperature, cells were washed with PBS twice.
EC50 values (shown in the left panel of FIG. 7C) were calculated based on the non-linear fitting curves by GraphPad Prism software. […] EC50 values (shown in right panel of FIG. 7C) were calculated based on the non-linear fitting curves by GraphPad Prism software.

[3] = target: T3, LILRA5 expressed on 293T cells (UniProt A6NI73 42-299, limits assumed); experiment: flow cytometry on 293T cells transiently expressing LILRA5, APC anti-human Fc; gMFI as fold to IgG staining
T3 construct: whole, on cells; GFP-tagged, transient
T3 sequence (A6NI73 42-299 limits assumed): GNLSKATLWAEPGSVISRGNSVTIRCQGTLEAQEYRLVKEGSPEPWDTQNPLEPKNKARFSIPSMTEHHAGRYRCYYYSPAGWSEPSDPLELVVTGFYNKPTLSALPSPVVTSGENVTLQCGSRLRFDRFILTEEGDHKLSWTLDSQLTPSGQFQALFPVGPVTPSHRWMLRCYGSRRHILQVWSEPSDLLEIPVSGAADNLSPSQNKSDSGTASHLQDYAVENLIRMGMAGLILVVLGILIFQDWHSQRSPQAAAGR
Description: as §1, §2

[4] = target: T2, human LILRB1 expressed on cells; experiment: flow cytometry, CHO-LILRB1 cells; blocked ligand: APC HLA-G trimer tetramer
Description: (§3) 50 μL CHO-LILRB1 or CHO-LILRB2 cells (4×10⁴ cells) were added to each well in a 96-well U-bottom plate. […] After an incubation at room temperature for 30 minutes, the plate was centrifuged, and cells were washed with PBS 3 times. […] After mixing for 30 minutes at room temperature, cells were washed with PBS twice.

[5] = target: T4, LILRA6 expressed on cells (human, UniProt Q6PI73 24-481); experiment: flow cytometry on 293T cells transiently expressing LILRA6, APC anti-human Fc; gMFI as fold to IgG staining
T4 construct: whole, on cells; GFP-tagged; also called human LILRA6; CHO-LILRA6
T4 sequence (Q6PI73 24-481): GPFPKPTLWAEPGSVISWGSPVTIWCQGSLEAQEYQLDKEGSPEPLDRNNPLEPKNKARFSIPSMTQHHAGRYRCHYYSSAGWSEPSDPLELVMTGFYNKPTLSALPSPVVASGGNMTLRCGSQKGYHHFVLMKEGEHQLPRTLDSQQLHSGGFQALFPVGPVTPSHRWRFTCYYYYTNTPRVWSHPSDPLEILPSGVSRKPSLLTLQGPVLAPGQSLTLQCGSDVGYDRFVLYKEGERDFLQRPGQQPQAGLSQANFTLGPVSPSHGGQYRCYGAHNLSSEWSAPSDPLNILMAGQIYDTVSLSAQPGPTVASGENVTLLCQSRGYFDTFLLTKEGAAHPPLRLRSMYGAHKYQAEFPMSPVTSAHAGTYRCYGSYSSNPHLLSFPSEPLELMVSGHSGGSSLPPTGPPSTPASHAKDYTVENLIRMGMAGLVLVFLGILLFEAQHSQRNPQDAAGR
Description: as §1, §2

[6] = target: T5, LILRB3 expressed on cells (human, UniProt O75022 24-631); experiment: flow cytometry on 293T cells transiently expressing LILRB3, APC anti-human Fc; gMFI as fold to IgG staining
T5 construct: whole, on cells; Expressed with a GFP tag from the bought plasmid; also called human LILRB3; CHO-LILRB3
Description: as §1, §2

[7] = target: T6, LILRB4 expressed on 293T cells (UniProt Q8NHJ6 22-448, limits assumed); experiment: flow cytometry on 293T cells transiently expressing LILRB4, APC anti-human Fc; gMFI as fold to IgG staining
T6 construct: whole, on cells; GFP-tagged, transient
Description: as §1, §2

[8] = target: T7, LILRB5 expressed on 293T cells (UniProt O75023 24-590, limits assumed); experiment: flow cytometry on 293T cells transiently expressing LILRB5, APC anti-human Fc; gMFI as fold to IgG staining
T7 construct: whole, on cells; GFP-tagged, transient
T7 sequence (O75023 24-590 limits assumed): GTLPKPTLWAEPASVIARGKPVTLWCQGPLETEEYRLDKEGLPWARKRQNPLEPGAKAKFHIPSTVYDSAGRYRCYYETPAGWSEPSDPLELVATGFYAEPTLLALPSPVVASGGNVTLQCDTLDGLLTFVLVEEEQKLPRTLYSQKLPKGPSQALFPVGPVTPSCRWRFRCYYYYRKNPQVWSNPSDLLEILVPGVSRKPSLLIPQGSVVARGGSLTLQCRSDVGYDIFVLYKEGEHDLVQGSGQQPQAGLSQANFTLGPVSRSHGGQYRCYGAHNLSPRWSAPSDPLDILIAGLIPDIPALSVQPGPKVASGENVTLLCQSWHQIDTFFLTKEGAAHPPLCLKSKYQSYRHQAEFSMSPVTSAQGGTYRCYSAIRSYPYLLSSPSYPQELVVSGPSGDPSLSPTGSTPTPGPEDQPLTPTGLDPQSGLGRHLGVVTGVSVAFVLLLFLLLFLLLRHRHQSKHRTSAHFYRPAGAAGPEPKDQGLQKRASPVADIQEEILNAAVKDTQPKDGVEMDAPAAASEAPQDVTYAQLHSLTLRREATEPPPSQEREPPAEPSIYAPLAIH
Description: as §1, §2

[9] = target: T2, human LILRB1 expressed on cells; experiment: flow cytometry, CHO-LILRB1 cells; remark: listed apart in the source
Description: as §3

[10] = target: T2, human LILRB1 expressed on cells; experiment: flow cytometry, CHO-LILRB1 cells; remark: listed apart in the source
[11] = target: T8, LILRA4 expressed on 293T cells (UniProt P59901 24-499, limits assumed); experiment: flow cytometry on 293T cells transiently expressing LILRA4, APC anti-human Fc; gMFI as fold to IgG staining
T8 construct: whole, on cells; GFP-tagged, transient
T8 sequence (P59901 24-499 limits assumed): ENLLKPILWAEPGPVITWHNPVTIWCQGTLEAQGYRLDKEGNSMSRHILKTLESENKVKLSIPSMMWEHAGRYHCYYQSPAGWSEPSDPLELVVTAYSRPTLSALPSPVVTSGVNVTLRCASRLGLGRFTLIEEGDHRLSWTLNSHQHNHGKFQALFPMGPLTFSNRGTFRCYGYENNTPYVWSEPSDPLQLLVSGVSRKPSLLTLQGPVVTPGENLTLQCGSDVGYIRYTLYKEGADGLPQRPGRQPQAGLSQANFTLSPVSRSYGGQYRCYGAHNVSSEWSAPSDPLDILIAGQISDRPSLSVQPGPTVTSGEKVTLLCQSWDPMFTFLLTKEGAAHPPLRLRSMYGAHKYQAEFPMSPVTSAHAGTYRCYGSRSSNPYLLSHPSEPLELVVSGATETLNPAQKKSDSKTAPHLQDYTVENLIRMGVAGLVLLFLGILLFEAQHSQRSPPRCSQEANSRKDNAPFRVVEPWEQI
Description: as §1, §2

[12] = target: T9, LILRA2 expressed on 293T cells (UniProt Q8N149 24-483, limits assumed); experiment: flow cytometry on 293T cells transiently expressing LILRA2, APC anti-human Fc; gMFI as fold to IgG staining
T9 construct: whole, on cells; GFP-tagged, transient
T9 sequence (Q8N149 24-483 limits assumed): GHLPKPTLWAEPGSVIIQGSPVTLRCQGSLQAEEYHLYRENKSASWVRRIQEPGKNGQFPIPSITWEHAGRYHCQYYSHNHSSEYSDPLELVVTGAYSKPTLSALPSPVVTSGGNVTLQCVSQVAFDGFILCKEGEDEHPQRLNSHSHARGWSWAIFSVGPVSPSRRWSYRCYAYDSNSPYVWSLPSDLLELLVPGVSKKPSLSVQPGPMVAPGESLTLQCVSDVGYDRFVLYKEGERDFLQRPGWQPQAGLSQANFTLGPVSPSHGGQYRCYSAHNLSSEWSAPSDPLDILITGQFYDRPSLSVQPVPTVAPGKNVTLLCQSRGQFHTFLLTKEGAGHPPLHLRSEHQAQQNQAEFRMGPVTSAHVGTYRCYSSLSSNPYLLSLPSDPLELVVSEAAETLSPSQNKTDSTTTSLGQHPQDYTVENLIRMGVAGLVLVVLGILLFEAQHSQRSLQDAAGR
Description: as §1, §2

[13] = target: T10, LILRA1 expressed on cells (human, UniProt O75019 17-489); experiment: flow cytometry on 293T cells transiently expressing LILRA1, APC anti-human Fc; gMFI as fold to IgG staining
T10 construct: whole, on cells; GFP-tagged; also called human LILRA1; CHO-LILRA1
T10 sequence (O75019 17-489): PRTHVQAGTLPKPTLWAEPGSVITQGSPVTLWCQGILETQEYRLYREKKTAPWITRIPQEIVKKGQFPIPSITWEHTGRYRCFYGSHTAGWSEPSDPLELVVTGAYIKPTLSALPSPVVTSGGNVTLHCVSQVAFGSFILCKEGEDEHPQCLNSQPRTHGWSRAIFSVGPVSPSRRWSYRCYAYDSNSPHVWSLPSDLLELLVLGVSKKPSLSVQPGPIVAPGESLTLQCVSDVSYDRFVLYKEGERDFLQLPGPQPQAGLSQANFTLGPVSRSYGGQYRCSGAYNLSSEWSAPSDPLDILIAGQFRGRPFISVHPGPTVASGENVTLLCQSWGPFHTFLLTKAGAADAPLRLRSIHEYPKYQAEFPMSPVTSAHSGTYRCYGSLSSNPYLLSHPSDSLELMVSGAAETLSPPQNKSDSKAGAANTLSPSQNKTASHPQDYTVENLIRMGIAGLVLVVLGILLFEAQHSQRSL

[14] = target: T11, human LILRB2 expressed on cells (human, UniProt Q8N423 22-597); experiment: flow cytometry on 293T cells transiently expressing LILRB2, APC anti-human Fc; gMFI as fold to IgG staining
T11 construct: In 293T cells it was expressed from pCMV3-LILRB2-GFP; also called CHO-LILRB2; Jurkat-LILRB2
T11 sequence (Q8N423 other isoform, or with tags, fused parts or gaps limits assumed): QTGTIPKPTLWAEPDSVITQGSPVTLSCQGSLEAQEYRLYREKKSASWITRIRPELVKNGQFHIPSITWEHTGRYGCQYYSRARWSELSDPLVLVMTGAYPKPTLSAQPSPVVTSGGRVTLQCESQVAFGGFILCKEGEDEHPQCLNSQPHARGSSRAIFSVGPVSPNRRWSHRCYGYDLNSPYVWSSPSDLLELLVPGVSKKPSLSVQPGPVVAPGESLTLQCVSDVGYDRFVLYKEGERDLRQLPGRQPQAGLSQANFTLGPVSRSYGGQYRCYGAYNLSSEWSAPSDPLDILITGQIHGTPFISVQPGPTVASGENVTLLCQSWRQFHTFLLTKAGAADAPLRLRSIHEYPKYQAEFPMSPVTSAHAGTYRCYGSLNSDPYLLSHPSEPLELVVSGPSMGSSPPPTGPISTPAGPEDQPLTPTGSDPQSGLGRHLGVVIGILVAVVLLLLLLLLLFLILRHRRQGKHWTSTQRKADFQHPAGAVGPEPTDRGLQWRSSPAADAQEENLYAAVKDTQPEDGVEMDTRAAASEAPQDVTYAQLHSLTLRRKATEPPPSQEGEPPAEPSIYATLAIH
Description: as §1, §2

T1 sequence (Q8N6C8 24-439 limits assumed): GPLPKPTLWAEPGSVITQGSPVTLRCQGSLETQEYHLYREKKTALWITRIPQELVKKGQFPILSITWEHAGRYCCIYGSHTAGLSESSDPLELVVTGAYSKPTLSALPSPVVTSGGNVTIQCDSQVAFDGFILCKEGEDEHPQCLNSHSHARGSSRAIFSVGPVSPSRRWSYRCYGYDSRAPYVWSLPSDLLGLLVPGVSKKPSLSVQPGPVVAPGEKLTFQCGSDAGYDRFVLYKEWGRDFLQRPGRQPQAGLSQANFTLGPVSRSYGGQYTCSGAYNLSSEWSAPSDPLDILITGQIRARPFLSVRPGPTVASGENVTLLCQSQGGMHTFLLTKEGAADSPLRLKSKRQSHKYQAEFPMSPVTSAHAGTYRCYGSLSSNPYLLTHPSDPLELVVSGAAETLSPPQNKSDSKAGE

binding result [1]: no binding (tested: 5 µg/mL)
EC50 (read off the curve) [2]: ~0.02 µg/mL
binding result [3]: no binding (tested: 5 µg/mL)
IC50 [4]: 0.012 µg/mL
binding result [5]: no binding (tested: 5 µg/mL)
binding result [6]: no binding (tested: 5 µg/mL)
binding result [7]: no binding (tested: 5 µg/mL)
binding result [8]: no binding (tested: 5 µg/mL)
EC50 [9]: 0.033 µg/mL
EC50 [10]: 0.016 µg/mL
gMFI (max) [10]: 23000
binding result [11]: no binding (tested: 5 µg/mL)
binding result [12]: no binding (tested: 5 µg/mL)
binding result [13]: no binding (tested: 5 µg/mL)
binding result [14]: no binding (tested: 5 µg/mL)
B1: Anti-LILRB1 antibody 3C1 (antibody, human IgG4 S228P, lambda, V domains shown)
VH: EVQLVESGGGLVQPGGSLRLSCAASGFTFSDYDMHWVRQATGKGLEWVATIDTAGDTYYPDSVRGRFTISRENAKNSLSLQMNSLRAGDTAVYFCARDVPGTGFDHWGQGTLVTVSS
VL: SSELTQDPAVSVALGQTVRITCQGDSLRSYYESWYQQKPGQAPVLVIYGKNNRPSGIPDRFSGSISGNTASLTITGTQAEDEADYYCNSRDNSGDHWVFGGGTRLTVLG
